According to patent US20110256153A1 (IMMUNOGEN, published 2011):

Experiments:
macaque CD37 = molecular target: T1, macaque CD37 (macaque, UniProt P11049 1-277 (human entry)); experiment: flow cytometry, 300-19/CD37mac cells
T1 construct: Expressed on 300-19 cells transfected with pSRa-CD37mac (300-19/CD37mac cells); also called macaca CD37; macaque derived CD37 antigen
T1 chain: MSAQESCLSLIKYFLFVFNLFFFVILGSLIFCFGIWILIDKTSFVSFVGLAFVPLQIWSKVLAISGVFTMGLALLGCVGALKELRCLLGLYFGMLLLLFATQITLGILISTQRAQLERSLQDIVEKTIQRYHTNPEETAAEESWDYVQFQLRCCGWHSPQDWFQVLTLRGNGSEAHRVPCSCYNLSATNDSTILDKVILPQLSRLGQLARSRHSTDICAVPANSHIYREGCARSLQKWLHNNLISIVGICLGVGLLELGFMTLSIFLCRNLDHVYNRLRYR
In short: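 300-19 cells transfected with macaque CD37, alongside non-transfected 300-19 cells (1×10⁵ per sample), incubated 3 h with purified antibodies in RPMI-1640 with 2% normal goat serum. Bound antibody detected with FITC-conjugated anti-mouse or anti-human secondary for 1 h. Cells fixed in 1% formaldehyde before flow cytometry.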

hCD37-M45 = molecular target: T2, hCD37-M45 (human/murine chimera, UniProt P11049 1-281); experiment: flow cytometry, 300-19 cells expressing hCD37-M45
T2 construct: stably expressed on 300-19 cells; also called hCD37-M45 variant
T2 chain: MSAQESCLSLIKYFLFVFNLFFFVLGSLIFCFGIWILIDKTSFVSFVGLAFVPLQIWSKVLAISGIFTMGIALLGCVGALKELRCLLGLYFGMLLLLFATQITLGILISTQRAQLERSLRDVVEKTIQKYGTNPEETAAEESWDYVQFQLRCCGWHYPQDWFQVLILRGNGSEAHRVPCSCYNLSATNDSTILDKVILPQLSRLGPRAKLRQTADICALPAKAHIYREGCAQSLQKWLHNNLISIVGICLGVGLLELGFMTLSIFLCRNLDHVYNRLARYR
Description: (§1) Binding specificity was tested by flow cytometry using purified antibodies. […] All murine antibodies were incubated for 3 h with either CD37-expressing 300-19 cells or the non-transfected 300-19 cells (1×10⁵ cells per sample) in 100 μL FACS buffer (RPMI-1640 medium supplemented with 2% normal goat serum). Then, the cells were pelleted, washed, and incubated for 1 h with 100 μL of FITC-conjugated goat anti-mouse IgG-antibody (Jackson Laboratory, 6 μg/mL in FACS buffer). The cells were pelleted again, washed with FACS buffer and resuspended in 200 μL of PBS containing 1% formaldehyde. Samples were acquired using a FACSCalibur flow cytometer with the HTS multiwell sampler or a FACS array flow cytometer and analyzed using CellQuest Pro (all from BD Biosciences, San Diego, US).
Binding of various CD37 antibodies to cells expressing human CD37 wildtype and variants was analyzed by flow cytometry using 1.5 μg/mL of each antibody. The isolated antibodies of this invention were compared to commercially available CD37 antibody WR17, as well as the TRU-016 SMIP. […] Likewise, all antibodies tested bound the hCD37-M3 variant (FIG. 18B). In contrast, the isolated antibodies of this invention bound the hCD37-M1 variant, while TRU-016 and WR17 were unable to bind hCD37-M1 variant (FIG. 19A). The CD37-50 and CD37-51 antibodies and TRU-016 were also able to bind the hCD37-M45 variant. […] In contrast, the CD37-3, CD37-12, CD37-38, CD37-56 and CD37-57 antibodies require at least one of the AA residues in the hCD37-M45 variant that were changed to the corresponding murine AA residues for binding to the CD37 antigen.

human CD37 [1] = molecular target: T3, human CD37 (human, UniProt P11049 1-278); experiment: flow cytometry titration on Ramos cells; apparent Kd
T3 construct: Tetraspanin antigen; Expressed on 300-19 cells transfected with pSRa-CD37 (entire CDS) or endogenous on WSU-DLCL-2, BJAB and Ramos lymphoma cells; also called CD37 antigen; human CD37 wildtype
T3 sequence: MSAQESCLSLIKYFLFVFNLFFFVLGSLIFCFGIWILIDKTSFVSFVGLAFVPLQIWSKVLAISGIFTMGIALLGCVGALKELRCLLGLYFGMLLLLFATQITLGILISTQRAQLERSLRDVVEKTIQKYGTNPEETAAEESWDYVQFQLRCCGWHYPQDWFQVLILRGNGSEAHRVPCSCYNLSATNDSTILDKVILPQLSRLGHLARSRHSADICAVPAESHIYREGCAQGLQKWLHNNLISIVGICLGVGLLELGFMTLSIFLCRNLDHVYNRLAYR
Description: as §1
The chimeric antibodies chCD37-3 and chCD37-12 were assayed for their binding affinity to Ramos cells in comparison to their murine counterparts. Flow cytometry binding assays using Ramos cells and muCD37-3, chCD37-3, muCD37-12 and chCD37-12 antibodies were carried out and analyzed as described in Example 2 using secondary FITC-conjugated goat-anti-murine and -anti-human antibodies. FIG. 9A depicts the dose-response curves generated by non-linear regression for each antibody. The value for the apparent dissociation constant (Kd) of each antibody was calculated using GraphPad Prism v4 (GraphPad software, San Diego, Calif.).

human CD37 [2] = molecular target: T3, human CD37; experiment: competition flow cytometry on BJAB cells; competitor PE-labeled muCD37-3 (1 nM)
Description: Flow cytometry binding assays using BJAB cells and a competitive binding format were used to evaluate binding affinity of chimeric and humanized versions of CD37-3. BJAB cells were incubated with a 1 nM concentration of PE-labeled muCD37-3 antibody and competition was measured by adding varying amounts of muCD37-3, chCD37-3, huCD37-3v1.0 or huCD37-3v1.01. The samples were incubated for 3 hrs at 4° C. Then, the cells were pelleted, washed with FACS buffer and resuspended in 200 μL of PBS containing 1% formaldehyde. Samples were acquired using a FACSCalibur flow cytometer with the HTS multiwell sampler and analyzed using CellQuest Pro (all from BD Biosciences, San Diego, US). The resulting mean PE fluorescence was plotted against the amount of competing antibody used in a semi-log plot. FIG. 9B depicts the dose-response curves generated by non-linear regression for each antibody. The value for the apparent dissociation constant (Kd) of each antibody was calculated using GraphPad Prism v4 (GraphPad software, San Diego, Calif.).

binding result (macaque CD37): no binding
binding result (hCD37-M45): no binding (tested: 1.5 µg/mL)
Kd (human CD37 [1]): 0.4 nM
EC50 (human CD37 [2]): 0.8 nM
B1: muCD37-3 (antibody, mouse IgG2a, kappa)
heavy: QVQVKESGPGLVAPSQSLSITCTVSGFSLTTSGVSWVRQPPGKGLEWLGVIWGDGSTNYHSALKSRLSIKKDHSKSQVFLKLNSLQTDDTATYYCAKGGYSLAHWGQGTLVTVSAAKTTAPSVYPLAPVCGDTTGSSVTLGCLVKGYFPEPVTLTWNSGSLSSGVHTFPAVLQSDLYTLSSSVTVTSSTWPSQSITCNVAHPASSTKVDKKIEPRGPTIKPCPPCKCPAPNLLGGPSVFIFPPKIKDVLMISLSPIVTCVVVDVSEDDPDVQISWFVNNVEVHTAQTQTHREDYNSTLRVVSALPIQHQDWMSGKEFKCKVNNKDLPAPIERTISKPKGSVRAPQVYVLPPPEEEMTKKQVTLTCMVTDFMPEDIYVEWTNNGKTELNYKNTEPVLDSDGSYFMYSKLRVEKKNWVERNSYSCSVVHEGLHNHHTTKSFSRTPGK
light: DIQMTQSPASLSVSVGETVTITCRASENIRSNLAWYQQKQGKSPQLLVNVATNLADGVPSRFSGSGSGTQYSLKINSLQSEDFGTYYCQHYWGTTWTFGGGTKLEIKRADAAPTVSIFPPSSEQLTSGGASVVCFLNNFYPKDINVKWKIDGSERQNGVLNSWTDQDSKDSTYSMSSTLTLTKDEYERHNSYTCEATHKTSTSPIVKSFNRNEC
notes: Murine hybridoma antibody; also called murine CD37-3 antibody; muCD37-3-PE
